Test results as given in the supplement of paper PMC9876800.

System: peptide library, one residue held at a place counted from the S/T acceptor
Assay: relative phosphorylation of the sub-library (ratio to the mean residue at this position); higher = residue favoured
Procedure, shortened: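 Relative sub-library phosphorylation is the ratio of each sub-library's signal to the mean residue at that position. The signal came from phosphorimaging of spots on streptavidin membranes, quantified by densitometry, after purified recombinant kinases reacted with biotinylated degenerate peptide sub-libraries in 384-well plates. Reactions held 50 μM peptide and 50 μM ATP spiked with γ-32P-ATP for 90 min under kinase-specific conditions.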

Chain of STK32B, construct: Full length, human (Q9NY57 whole entry, looked up): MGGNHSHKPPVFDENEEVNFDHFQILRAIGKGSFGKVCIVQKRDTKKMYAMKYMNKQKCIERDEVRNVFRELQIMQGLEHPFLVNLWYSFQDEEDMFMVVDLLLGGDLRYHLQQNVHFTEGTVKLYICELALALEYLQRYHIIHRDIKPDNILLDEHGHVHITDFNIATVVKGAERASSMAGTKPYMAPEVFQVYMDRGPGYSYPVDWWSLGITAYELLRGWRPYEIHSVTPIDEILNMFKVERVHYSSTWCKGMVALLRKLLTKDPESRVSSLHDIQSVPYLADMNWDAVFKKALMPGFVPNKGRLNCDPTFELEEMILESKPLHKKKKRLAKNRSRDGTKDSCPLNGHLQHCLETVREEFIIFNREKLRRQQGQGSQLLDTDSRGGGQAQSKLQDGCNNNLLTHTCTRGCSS
Chain of RPS6KB1, construct: aa1-421, human (P23443 1-421, looked up): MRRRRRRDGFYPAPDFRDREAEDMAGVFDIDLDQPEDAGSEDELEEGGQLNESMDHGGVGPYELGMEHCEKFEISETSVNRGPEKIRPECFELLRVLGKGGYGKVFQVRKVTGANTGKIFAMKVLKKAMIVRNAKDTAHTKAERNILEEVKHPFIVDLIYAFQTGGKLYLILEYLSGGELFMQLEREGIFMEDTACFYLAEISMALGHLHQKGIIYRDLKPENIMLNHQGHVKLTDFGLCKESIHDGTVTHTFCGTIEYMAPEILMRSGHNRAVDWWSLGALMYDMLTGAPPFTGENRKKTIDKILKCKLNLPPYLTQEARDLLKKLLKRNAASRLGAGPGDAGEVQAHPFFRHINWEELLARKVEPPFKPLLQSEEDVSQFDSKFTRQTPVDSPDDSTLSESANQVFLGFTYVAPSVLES
Chain of MAPK7, construct: aa1-405, human (Q13164 1-405, looked up): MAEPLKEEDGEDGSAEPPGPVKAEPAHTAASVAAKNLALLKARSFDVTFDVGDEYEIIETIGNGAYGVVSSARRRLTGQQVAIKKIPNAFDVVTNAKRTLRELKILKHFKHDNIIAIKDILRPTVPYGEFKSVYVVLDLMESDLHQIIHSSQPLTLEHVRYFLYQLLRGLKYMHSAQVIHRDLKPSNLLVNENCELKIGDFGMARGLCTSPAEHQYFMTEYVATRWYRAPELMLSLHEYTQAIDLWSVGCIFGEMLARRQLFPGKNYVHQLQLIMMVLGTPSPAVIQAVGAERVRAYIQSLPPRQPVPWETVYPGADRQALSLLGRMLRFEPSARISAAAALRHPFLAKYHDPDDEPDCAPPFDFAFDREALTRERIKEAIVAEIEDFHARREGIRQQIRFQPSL

RPS6KB1, construct: aa1-421, human (from UniProt P23443)
relative phosphorylation
Conditions | at +1 | at +2 | at +3 | at +4 | at -1 | at -2 | at -3 | at -4 | at -5
A fixed | 0.718 | 0.952 | 0.865 | 0.956 | 0.716 | 0.67 | 0.516 | 0.839 | 0.539
D fixed | 0.458 | 0.433 | 0.664 | 0.933 | 0.802 | 0.231 | 0.188 | 0.433 | 0.362
E fixed | 0.849 | 0.268 | 0.694 | 0.703 | 0.577 | 0.25 | 0.194 | 0.694 | 0.323
F fixed | 2.01 | 0.855 | 1.22 | 0.909 | 0.878 | 0.823 | 0.421 | 0.73 | 0.721
G fixed | 0.804 | 1.68 | 1.13 | 1.18 | 0.562 | 0.48 | 0.318 | 0.724 | 0.608
H fixed | 1.19 | 1.65 | 1.45 | 1.38 | 1.28 | 1.14 | 0.949 | 1.11 | 1.21
I fixed | 1.07 | 0.942 | 0.914 | 0.909 | 0.768 | 0.741 | 0.37 | 0.708 | 0.593
K fixed | 0.932 | 0.794 | 0.982 | 0.943 | 1.35 | 2.56 | 1.45 | 2.08 | 1.92
L fixed | 1.18 | 0.933 | 0.976 | 0.868 | 1.12 | 1.24 | 0.426 | 0.802 | 0.714
M fixed | 1.39 | 1 | 0.794 | 0.863 | 1.19 | 0.87 | 0.452 | 0.947 | 0.529
N fixed | 0.746 | 1.41 | 0.87 | 1.07 | 1.31 | 0.763 | 0.41 | 0.904 | 0.66
P fixed | 0.328 | 0.816 | 0.955 | 1.26 | 1.2 | 0.289 | 0.297 | 0.794 | 0.645
Q fixed | 0.717 | 0.707 | 1 | 0.966 | 0.957 | 0.841 | 0.541 | 1.05 | 0.934
R fixed | 0.944 | 1.61 | 1.08 | 0.784 | 1.3 | 3.7 | 8.82 | 2.34 | 5.28
V fixed | 1.19 | 1.06 | 0.772 | 0.926 | 1.01 | 0.596 | 0.362 | 1.01 | 0.562
W fixed | 1.42 | 0.935 | 1.43 | 1.26 | 0.8 | 0.751 | 0.658 | 0.989 | 0.738
Y fixed | 1.05 | 0.955 | 1.21 | 1.09 | 1.17 | 1.05 | 0.624 | 0.849 | 0.661
pThr fixed | 0.905 | 0.467 | 0.716 | 1.36 | 0.384 | 0.275 | 0.231 | 0.55 | 0.429
pTyr fixed | 1.39 | 0.696 | 0.954 | 1.14 | 1.77 | 0.451 | 0.348 | 0.598 | 0.579

STK32B, construct: Full length, human (from UniProt Q9NY57)
relative phosphorylation
Conditions | at +1 | at +2 | at +3 | at +4 | at -1 | at -2 | at -3 | at -4 | at -5
A fixed | 0.577 | 0.493 | 0.744 | 0.79 | 0.938 | 0.933 | 0.994 | 1.1 | 1.08
D fixed | 0.363 | 0.882 | 0.608 | 0.539 | 0.556 | 0.56 | 1.54 | 1.15 | 1.08
E fixed | 0.932 | 1.81 | 0.743 | 0.769 | 0.726 | 0.921 | 1.35 | 1.59 | 0.878
F fixed | 2.31 | 0.995 | 1.37 | 0.745 | 0.832 | 1.35 | 0.754 | 0.804 | 0.938
G fixed | 0.389 | 0.269 | 0.43 | 0.849 | 1.26 | 0.739 | 0.909 | 1.24 | 1.19
H fixed | 0.784 | 1.61 | 1.11 | 1.16 | 0.992 | 1.22 | 0.871 | 0.975 | 1.14
I fixed | 1.91 | 0.897 | 1.47 | 1.04 | 0.557 | 0.77 | 0.702 | 0.66 | 0.798
K fixed | 0.75 | 0.796 | 1.1 | 1.84 | 1.32 | 0.656 | 1.05 | 1.1 | 1.35
L fixed | 1.1 | 0.767 | 1.29 | 0.812 | 0.884 | 1.7 | 0.77 | 0.744 | 0.78
M fixed | 2.15 | 0.934 | 1.17 | 0.898 | 1.15 | 1.2 | 0.776 | 0.906 | 0.797
N fixed | 0.545 | 0.704 | 0.659 | 0.828 | 0.878 | 1.02 | 0.941 | 0.983 | 1.03
P fixed | 0.259 | 0.214 | 0.356 | 1.13 | 1.46 | 1.23 | 1.03 | 1.1 | 0.987
Q fixed | 1.01 | 0.86 | 0.826 | 0.864 | 1.03 | 0.88 | 0.753 | 0.88 | 0.88
R fixed | 0.939 | 1.01 | 1.05 | 1.87 | 2.02 | 1.02 | 2.17 | 1.32 | 1.39
V fixed | 1.26 | 0.765 | 1.4 | 0.742 | 0.593 | 0.797 | 0.821 | 0.764 | 0.736
W fixed | 0.713 | 1.39 | 1.41 | 1.14 | 0.634 | 0.755 | 0.65 | 0.784 | 0.844
Y fixed | 1 | 2.61 | 1.24 | 0.989 | 1.16 | 1.25 | 0.915 | 0.903 | 1.11
pThr fixed | 1.12 | 2.27 | 3.42 | 1.86 | 1.03 | 1.74 | 9.83 | 2.88 | 1.67
pTyr fixed | 2.4 | 63.9 | 6.44 | 10.7 | 1.72 | 7.31 | 2.44 | 1.38 | 1.77

MAPK7, construct: aa1-405, human (from UniProt Q13164)
relative phosphorylation
Conditions | at +1 | at +2 | at +3 | at +4 | at -1 | at -2 | at -3 | at -4 | at -5
A fixed | 5.25 | 0.808 | 0.997 | 0.943 | 0.957 | 0.867 | 1.2 | 1.21 | 1.14
D fixed | 0.374 | 0.579 | 0.866 | 1.2 | 0.745 | 0.491 | 0.862 | 1.11 | 0.83
E fixed | 0.338 | 0.519 | 0.827 | 0.951 | 0.646 | 0.484 | 0.872 | 1.12 | 0.81
F fixed | 0.47 | 0.908 | 0.941 | 0.922 | 0.956 | 0.658 | 0.778 | 0.919 | 1.03
G fixed | 1.67 | 1 | 1.14 | 1.08 | 0.808 | 0.666 | 1.08 | 1.09 | 0.977
H fixed | 0.466 | 0.917 | 0.886 | 1.05 | 1.28 | 0.568 | 0.822 | 0.913 | 1.07
I fixed | 0.372 | 1.08 | 1.45 | 0.998 | 0.684 | 1.43 | 0.988 | 0.891 | 1.02
K fixed | 0.449 | 1.24 | 0.59 | 0.947 | 0.834 | 0.797 | 0.827 | 0.943 | 0.988
L fixed | 0.54 | 1.02 | 1.27 | 0.918 | 1.61 | 2.64 | 1.07 | 0.938 | 1.06
M fixed | 0.523 | 1.08 | 1.12 | 0.993 | 1.66 | 1.91 | 1.13 | 0.976 | 0.986
N fixed | 0.464 | 0.963 | 0.789 | 0.8 | 0.948 | 0.61 | 1.06 | 0.954 | 1
P fixed | 3.79 | 0.758 | 1.13 | 1.04 | 1.13 | 2.1 | 1.87 | 1.16 | 1.03
Q fixed | 0.438 | 0.927 | 0.818 | 1.07 | 1.02 | 0.928 | 0.926 | 0.941 | 0.867
R fixed | 0.471 | 2 | 0.794 | 0.939 | 0.983 | 0.695 | 1.04 | 0.894 | 1.11
V fixed | 0.426 | 1.16 | 1.08 | 0.975 | 0.69 | 0.986 | 0.96 | 0.982 | 1.01
W fixed | 0.534 | 1.1 | 1.2 | 1.21 | 0.844 | 0.631 | 0.791 | 1.03 | 0.892
Y fixed | 0.429 | 0.945 | 1.1 | 0.97 | 1.2 | 0.533 | 0.737 | 0.931 | 1.18
pThr fixed | 0.632 | 0.779 | 0.702 | 0.863 | 0.541 | 0.976 | 0.946 | 1.07 | 0.901
pTyr fixed | 0.518 | 0.587 | 0.989 | 0.835 | 0.945 | 0.815 | 1.02 | 1.11 | 1.04
